Data taken from the supplement of paper PMC9170038.

System: MS2 coat protein
Assay: apparent KD of MS2 coat protein; higher = weaker reporter binding
Details: Eterna round: R107
Method: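 RNA-MaP round R107: designed RNA switches with theophylline, tryptophan, arginine or FMN aptamers are transcribed on-chip within common flanks. They are titrated with SNAP-549-labelled MS2 coat protein in RNA-MaP buffer (100 mM Tris pH 7.5, 80 mM KCl, 4 mM MgCl2), without ligand or with the indicated ligand. Median apparent KD per design.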

[1] = input ligand: theophylline 20 uM
[2] = input ligand: tryptophan 2.4 mM
[3] = input ligand: theophylline 2 mM

| Sequence | apparent KD of MS2 coat protein (input ligand: arginine 13.2 mM) | apparent KD of MS2 coat protein [1] | apparent KD of MS2 coat protein [2] | apparent KD of MS2 coat protein [3] | apparent KD of MS2 coat protein (input ligand: none) |
| --- | --- | --- | --- | --- | --- |
| AAAACACAUGAGGAUCACCCAUGUCGUGAUACCAGUCAACAUGAGGACCCUUGGCAGCAUAAAAUGGGUAACAUGAGGAUAACCC [AstrosEXyTheA#3] | 75.4 nM | 105 nM | 101 nM |  |  |
| AAAAUAAAUAAAACGCGUAACAUGAAGGAUACCAGCCAGAAAACUGGCCCUUGGCAGCCUCUACAUGAGGAUCACCCAUGUCGCG [Mat - Same State Theophlline A - Mod of Eli - D15] | 161 nM | 141 nM | 332 nM |  |  |
| AAACAUGAGGAUCACCCAUGUAUACUUAGACGAGGACCGGUACGGCCGCCACUCGAACUUCAAGAUUUGGCGGAAAAUGUAUGUA [JR_ExcTryptoA_Sub022] | 9.71 nM | 13 nM |  | 12.1 nM |  |
| AAACAUGAGGAUCACCCAUGUUGAGGAUCACGAGGACCGGUACGGCCGCCACUCGACAUGAGGAUCACCCAUGUGAGGAUCACCC [Same State - Tryptophan A #1] | 52.5 nM | 214 nM |  | 337 nM |  |
| AAACGUUGCUGCGAUACCAGACAUGAGGAUCACCCAUGUACCAAGGUAACCGAAAGGCAUGUCCCUUGGCAGCGCAGCAACGAAA [MAT - Exclusion Theophlline B - Mod of Eli - D17] | 14.8 nM | 18.9 nM | 13.5 nM | 262 nM | 11.1 nM |
| AAACGUUGCUGCGAUACCAGACAUGAGGAUCACCCAUGUACCGAGGUACCCGAAAGGAAUGUCCCUUGGCAGCGCAGCAACGAAA [MAT - Exclusion Theophlline B - Mod of Eli - D24] | 11.2 nM | 15.3 nM | 11.7 nM | 124 nM | 11.7 nM |
| AAAGAUCGGAAACGAUCGGCGGCUUGGGCGCGAGGACCGGUACGGCCGCCACUCGGGAAACAUGAGGAUCACCCAUGUUGCUUCU [ETA NP+V+V2 #16] | 10 nM | 12.5 nM |  | 11.9 nM |  |
| AAAGGACAUGAGGAUCACCCAUGUCUCGAUACCAGCCGAUCAUCAGGCCCUUGGCAGCGAGACAAGGGUCAUGGAUCGCGGUUCU [Beerusmage] | 11.7 nM | 17.4 nM | 13.9 nM | 12.3 nM | 11.4 nM |
| AAAGGCGGGCAGGAUACCAGCGCUAACAUGAGGAUCACCCAUGUACAAAUAAUAACAUGGUGCCCUUGGCAGCCUGGGCGUCUGC [Usedlati] | 26.6 nM | 150 nM | 61.3 nM |  |  |
| AAAUAAACAUCGGCCGCCACUUACUCAUGAGGUAACAACAUGAGGAUCACCCAUGUUUGAGGAUCAAGGACCGGGAUGUAAUAAA [AstrosSSTryB#1] | 23.1 nM | 33.6 nM | 19.6 nM | 32.9 nM | 27.3 nM |
| AAAUAAAUCACAUGAGGAUCACCCAUGGAUACCAGGCCUGGAAACAGCCCUUGGCAGCCACAUGAGGAUCACCCAUGUGCUAAAU [MAT - Exclusion Theophlline A - Mod of Eli - D2] | 98.4 nM | 207 nM | 140 nM |  |  |
| AAAUACAUGAGGAUCACCCAUGUCAAUAAUCGAGGACCGGUACGGCCGCCACUCGAUCGGCCAAGAAAAUGAAAGAUGAUCUCUA [theeternabot_sameState_MS2_Trp_A_8] | 18.1 nM | 37.5 nM |  | 27.4 nM |  |
| AACAAUGCACAUGAGGAUCACCCAUGUGAUACCAGCCGCAACAUAGGCCCUUGGCAGCAUGUGGGUAUAGAACGAUUUGGCUGAA [Xeanle] | 24.4 nM | 85.3 nM | 41.7 nM |  |  |
| AACAGGGCUCGCACGAAGCCCUAAGGUGAUACCAGCACAUGUAAGUGCCCUUGGCAGCACGGUACAUGAGGAUCACCCAUGUAGA [Isleenen] | 19.7 nM | 182 nM | 59.4 nM |  |  |
| AACAUACAAUUUUAGGUGGAUAUAAGGCGGCGAGGACCGGUACGGCCGCCACUCGCGUACAUGAGGAUCACCCAUGUCUGAAGCU [Same State - Tryptophan A (Freestyle 6)] | 12.8 nM | 21.7 nM | 21.4 nM | 27.3 nM | 21.7 nM |
| AACAUACAUGAGGAUCACCCAUGUCACGAUACCAGAUACAUGAGGAUCCCUUGGCAGCGUCAUGAGGAUCACCCAUGUUGUACAU [Exclusion Theophylline A 2] | 20.3 nM | 22.7 nM | 17.7 nM |  |  |
| AACAUGAGGAUCACCCAUGUCCUCGUGAUUCGAGGACCGGUACGGCCGCCACUCGGUCCUCGCGAGGUGGAGUCAAAGACUCCAA [Omei Trp A SS A v3] | 72.3 nM | 487 nM | 327 nM | 425 nM | 384 nM |
| AACAUGAGGAUCACCCAUGUGUCCCUUGAUACCAGUCCCAUGUGAGACCCUUGGCAGCAAACAUGAGGAUCACCCAUGUCCCAUG [Same State Theophylline A 3] | 60.9 nM | 119 nM | 90.2 nM |  |  |
| AACGCGGUGAUGGUAGCCGGACGCUAGGUACGAGGACCGGUACGGCCGCCACUCGGAGUCCUACGACAUGAGGAUCACCCAUGUA [Same State Trp A GF15] | 53.9 nM | 140 nM |  | 145 nM |  |
